The values below come from PMC9935901 (Signal Transduction and Targeted Therapy, 2023).

The target of the assay is T1, GST-tagged full-length β-catenin (UniProt P35222 1-781).
T1 construct: β-catenin, full length; also called GST-β-catenin
T1 sequence (looked up): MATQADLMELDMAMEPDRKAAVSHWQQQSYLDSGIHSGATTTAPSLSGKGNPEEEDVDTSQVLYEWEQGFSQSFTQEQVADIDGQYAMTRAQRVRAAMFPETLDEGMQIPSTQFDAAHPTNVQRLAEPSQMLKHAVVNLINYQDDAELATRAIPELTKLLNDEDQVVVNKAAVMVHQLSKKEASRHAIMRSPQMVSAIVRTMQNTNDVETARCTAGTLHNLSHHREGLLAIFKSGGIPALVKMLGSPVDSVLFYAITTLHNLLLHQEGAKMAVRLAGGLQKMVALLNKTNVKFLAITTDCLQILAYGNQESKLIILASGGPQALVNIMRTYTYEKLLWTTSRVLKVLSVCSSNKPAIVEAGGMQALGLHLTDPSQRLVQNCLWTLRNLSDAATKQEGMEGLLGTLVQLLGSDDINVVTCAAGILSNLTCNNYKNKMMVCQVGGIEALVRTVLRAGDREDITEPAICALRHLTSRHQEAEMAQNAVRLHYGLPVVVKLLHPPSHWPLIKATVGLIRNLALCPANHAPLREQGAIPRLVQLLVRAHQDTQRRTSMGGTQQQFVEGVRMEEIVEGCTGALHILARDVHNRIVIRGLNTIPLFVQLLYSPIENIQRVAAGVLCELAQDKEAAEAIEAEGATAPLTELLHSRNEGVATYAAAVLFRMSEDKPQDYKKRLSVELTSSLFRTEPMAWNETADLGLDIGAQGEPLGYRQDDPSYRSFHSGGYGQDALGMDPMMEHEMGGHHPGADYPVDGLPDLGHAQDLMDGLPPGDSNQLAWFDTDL
Kind of assay: pull-down; purified GST-tagged full-length β-catenin incubated with purified His-tagged FAM83A, pulled down by GST beads, western blotting. The note with it: both partners purified. (In general: In western blotting, separated proteins are transferred to a membrane and probed.)

B1: His-tagged FAM83A (natural protein, UniProt Q86UY5 1-434, looked up)
chain: MSRSRHLGKIRKRLEDVKSQWVRPARADFSDNESARLATDALLDGGSEAYWRVLSQEGEVDFLSSVEAQYIQAQAREPPCPPDTLGGAEAGPKGLDSSSLQSGTYFPVASEGSEPALLHSWASAEKPYLKEKSSATVYFQTVKHNNIRDLVRRCITRTSQVLVILMDVFTDVEIFCDILEAANKRGVFVCVLLDQGGVKLFQEMCDKVQISDSHLKNISIRSVEGEIYCAKSGRKFAGQIREKFIISDWRFVLSGSYSFTWLCGHVHRNILSKFTGQAVELFDEEFRHLYASSKPVMGLKSPRLVAPVPPGAAPANGRLSSSSGSASDRTSSNPFSGRSAGSHPGTRSVSASSGPCSPAAPHPPPPPRFQPHQGPWGAPSPQAHLSPRPHDGPPAAVYSNLGAYRPTRLQLEQLGLVPRLTPTWRPFLQASPHF
notes: FAM83A; also called His-FAM83A
Take B1: the binding result is reported as “binds”.
